# T1: human α-CGRP (Homo sapiens, UniProt P06881)
# T1 construct: 1-37 (WT); purchased; host or cells: synthetic peptide
# T1 sequence (P06881 83-119 limits assumed): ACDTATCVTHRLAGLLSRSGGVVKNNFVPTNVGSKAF
# T2: rat α-CGRP (Rattus norvegicus, UniProt P01256)
# T2 construct: rat α (1-37); host or cells: synthetic peptide
# T2 sequence (P01256 83-119 limits assumed): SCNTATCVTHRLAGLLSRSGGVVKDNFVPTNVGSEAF
# B1: M40: G1 variant: L1 R28N; L2 G50A,L56T; H2 E54K,A57L; HC-FW3 L99T,A100V (antibody, V domains shown)
# VH: EVQLVESGGGLVQPGGSLRLSCAASGFTFSNYWISWVRQAPGKGLEWVAEIRSKSDLSATHYAEAVKGRFTISRDNAKNSLYLQMNSLRAEDTAVYYCTVYFDYGLAIQNYWGQGTLVTVSS
# VL: EIVLTQSPATLSLSPGERATLSCKASKNVTTYVSWYQQKPGQAPRLLIYAASNRYTGIPARFSGSGSGTDFTLTISSLEPEDFAVYYCSQSYNYPYTFGQGTKLEIK
# B2: M44: G1 variant: L1 R28N; L2 G50A,L56T; H2 E54K,A57N,S58E; HC-FW3 L99T,A100V (antibody, V domains shown)
# VH: EVQLVESGGGLVQPGGSLRLSCAASGFTFSNYWISWVRQAPGKGLEWVAEIRSKSDNEATHYAEAVKGRFTISRDNAKNSLYLQMNSLRAEDTAVYYCTVYFDYGLAIQNYWGQGTLVTVSS
# VL: EIVLTQSPATLSLSPGERATLSCKASKNVTTYVSWYQQKPGQAPRLLIYAASNRYTGIPARFSGSGSGTDFTLTISSLEPEDFAVYYCSQSYNYPYTFGQGTKLEIK
# B3: M42: G1 variant: L1 R28N; L2 G50A,L56T; H2 E54K,A57N,H61F; HC-FW3 L99T,A100V (antibody, V domains shown)
# VH: EVQLVESGGGLVQPGGSLRLSCAASGFTFSNYWISWVRQAPGKGLEWVAEIRSKSDNSATFYAEAVKGRFTISRDNAKNSLYLQMNSLRAEDTAVYYCTVYFDYGLAIQNYWGQGTLVTVSS
# VL: EIVLTQSPATLSLSPGERATLSCKASKNVTTYVSWYQQKPGQAPRLLIYAASNRYTGIPARFSGSGSGTDFTLTISSLEPEDFAVYYCSQSYNYPYTFGQGTKLEIK
# B4: M43: G1 variant: L1 R28N; L2 G50A,L56T; H2 E54K,A57N,S58C; HC-FW3 L99T,A100V (antibody, V domains shown)
# VH: EVQLVESGGGLVQPGGSLRLSCAASGFTFSNYWISWVRQAPGKGLEWVAEIRSKSDNCATHYAEAVKGRFTISRDNAKNSLYLQMNSLRAEDTAVYYCTVYFDYGLAIQNYWGQGTLVTVSS
# VL: EIVLTQSPATLSLSPGERATLSCKASKNVTTYVSWYQQKPGQAPRLLIYAASNRYTGIPARFSGSGSGTDFTLTISSLEPEDFAVYYCSQSYNYPYTFGQGTKLEIK
# B5: M45: G1 variant: L1 R28N; L2 G50A,L56T; H2 E54K,A57N,S58E,E64D; HC-FW3 L99T,A100V (antibody, V domains shown)
# VH: EVQLVESGGGLVQPGGSLRLSCAASGFTFSNYWISWVRQAPGKGLEWVAEIRSKSDNEATHYADAVKGRFTISRDNAKNSLYLQMNSLRAEDTAVYYCTVYFDYGLAIQNYWGQGTLVTVSS
# VL: EIVLTQSPATLSLSPGERATLSCKASKNVTTYVSWYQQKPGQAPRLLIYAASNRYTGIPARFSGSGSGTDFTLTISSLEPEDFAVYYCSQSYNYPYTFGQGTKLEIK
# B6: M41: G1 variant: L1 R28N; L2 G50A,L56T; H2 E54K,A57N,E64D; HC-FW3 L99T,A100V (antibody, V domains shown)
# VH: EVQLVESGGGLVQPGGSLRLSCAASGFTFSNYWISWVRQAPGKGLEWVAEIRSKSDNSATHYADAVKGRFTISRDNAKNSLYLQMNSLRAEDTAVYYCTVYFDYGLAIQNYWGQGTLVTVSS
# VL: EIVLTQSPATLSLSPGERATLSCKASKNVTTYVSWYQQKPGQAPRLLIYAASNRYTGIPARFSGSGSGTDFTLTISSLEPEDFAVYYCSQSYNYPYTFGQGTKLEIK
# Key:
# human α-CGRP = molecular target: T1, human α-CGRP; assay: Biacore affinity of antibody G1 Fab and variants to human α-CGRP; assay type: binding; conditions: 37° C., Fab, screening mode unless underlined
# Summary of the method: (§1)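 Fab fragments flowed over N-biotinylated CGRP captured on SA chip in HBS-EP pH 7.4; titration series fit globally to 1:1 Langmuir model, KD = koff/kon. For very slow off-rates, kon from 550 nM–1 nM series with 30 s dissociation, koff from 2-hour dissociation.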
# rat α-CGRP = molecular target: T2, rat α-CGRP; assay: Biacore affinity of antibody G1 Fab and variants to rat α-CGRP; assay type: binding; conditions: 37° C., Fab, screening mode unless underlined
# Summary of the method: as §1
Molecule,α-human koff (human α-CGRP) [s⁻¹],α-rat koff (rat α-CGRP) [s⁻¹]
B1,0.00128,0.36
B2,0.00021,0.00613
B3,0.000417,0.00752
B4,0.000263,0.00453
B5,0.000211,0.00558
B6,0.00021,0.00453

# From US10766952B2, “Methods for reducing migraine frequency in a subject in need thereof” (Beth Israel Deaconess Medical Center, Inc., priority 2017, dated 2020)
